According to patent publication US20250115926A1, “DEREGULATED DHS AND TYRA ENZYMES OF GRASSES ENABLE EFFICIENT PRODUCTION OF BOTH TYROSINE AND PHENYLALANINE” (Wisconsin Alumni Research Foundation, priority 2023, published 2025):

B1: BdTyrAnc: non-canonical TyrA enzyme of Brachypodium distachyon, SEQ ID NO: 37 (protein)
chain: MASSLVHLSSPAGGRTAAAPPSLLSRFSPNFCAFATLRPGPTRPTAATPKHARARTCAEQEQKQEVAAPCRDAYEKPAVWNTTAADSAEAAPPLRVGIIGFGNFGQFIARGIQRQGHAVLATSRSDYSAYCSAQGIRYFRSLEALCEEQPNVLLVCSSILSTEAVVRAIPFHKLRSDTIVADVLSVKQFPRNLLLEILPPEFGIVCTHPMFGPESGKHGWSTLPFVYDKVRLADKGDQKANCGQFLSIFEGEGCRMVEMSCAEHDRHAAASQFITHTIGRVLAQLNLKSTPINTKGFEALLKLTENTVSDSFDLYYGLFMYNVNATEQIEKLERAFEKVKQMLYGRLHDILRKQIVERVPI
modifications: Brachypodium distachyon
B2: SbTyrAnc: non-canonical TyrA enzyme of Sorghum bicolor, SEQ ID NO: 43 (protein)
chain: MASSLRHFAGLGCFPAVASTSGSTCCLRRYTPNFCAFVALRPISPPAATATATAKALTSPSPVEQHLQAVVPCHGISDPPAASSAAAVPAAPLRVGIVGFGNFGQFIAGGLQRQGHVVLAASRSDYSVYCASHGIRFFRSVDALCEEQPDVLLICSSILSTEGVVRAIPFRKLRHDTIVADVLSVKEFPRNLLLEVLPPGFGIICTHPMFGPESGKHGWGKLPFVFDKVRVAEDGDQAAKCDQFLSIFEQEGCRMVEMSCAEHDRYAAGSQFITHTIGRVLSQLNLKSTPINTKGYETLLQLTKNTVSDSFDLYYGLFMYNVNATEQLDKLEMAFEKVRQMLSGRLHDFIRKQIVERAAHVPADPSGKLANGLSSSPAARLL
modifications: Sorghum bicolor
B3: BdTyrA2: TyrA2 arogenate dehydrogenase of Brachypodium distachyon, SEQ ID NO: 35 (protein)
chain: MSSSGRFHQPPSCRRPAALAQSLRASTTTVTCRWRQQYHHPLAAAPLRLRAVPVRATDAARQPFDHLSGAVKSEEGTHPRLKIAIVGFGNYGQFLARTMVQQGHTVLAHSRSDHSAAAATIGASFYADAHDLCECQPDVVLLSTSILSAEAVLRSLPVHRFRRSTLFADVLSVKEFPKNLLLAYLPGDFDVICTHPMFGPESARDGWAGLPFVFDEVRVGDGPARRARADAFLDVFAREGCRMVEMSCAEHDAHAAETQFLTHTVGRMLATLDLKSTPINTKGYETLLRLVDNTCSDSFDLYNGLFMYNNNATELLHRLESAMDSVKRRLFDGLHEVLRRQLFEGSPPLNRDSSFPAESSLDDGR
modifications: Brachypodium distachyon

How the values were obtained:
[1] = TyrA feedback inhibition by tyrosine (recombinant enzymes); format: biochemical; details: FIG. 12
[2] = tested on: Nicotiana benthamiana leaves; assay: Co-expression of BdTyrA and BdDHS enzymes in Nicotiana benthamiana leaves; format: in vivo
Description: Gene expression data in Brachypodium (FIG. 4B) indicate that BdTyrA1 is co-expressed with BdDHS1b and BdPTAL in the internodes, where we detected a high rate of tyrosine production (FIG. 2). […] We therefore hypothesized that BdTyrA1 and BdDHS1b may co-operate in the high production of tyrosine and phenylalanine observed in grass tissues. To test this possibility, we co-expressed in planta different combinations of BdTyrA enzymes and BdDHS enzymes and measured the impact on phenylalanine and tyrosine levels. To this end, we took advantage of the Golden Gate modular cloning system^52 and assembled the BdTyrA and BdDHS expression cassettes into the same vector backbone (FIG. 13). To avoid causing a strong over-expression, BdTyrA and BdDHS were driven by RuBisCO small subunit promoters from Arabidopsis (PAtRbcS3B) and tomato (PSIRbcS3A), respectively (FIG. 13)^51. […] Similarly, no significant additive effects were observed upon co-expression of the BdTyrA enzymes with feedback-regulated BdDHS2 (FIG. 5B).
Agrobacterium tumefaciens strain GV3101 transformed with the plant expression constructs were grown at 28° C. for 24 to 36 hours in 10 mL of LB liquid media containing the corresponding antibiotics. […]
Aromatic amino acids and shikimate were detected using a Vanquish Horizon Binary UHPLC (Thermo Scientific) coupled to a Q Exactive mass spectrometer (Thermo Scientific). […]

[3] = tested on: Nicotiana benthamiana leaves; assay: Transient expression of TyrA genes in Nicotiana benthamiana leaves (CaMV 35S promoter), tyrosine by HPLC; format: in vivo; details: infiltrated leaves, 72 hours
Description: Agrobacterium tumefaciens strain GV3101 transformed with the plant expression constructs were grown at 28° C. for 24 to 36 hours in 10 mL of LB liquid media containing the corresponding antibiotics. The saturated cultures were spun down at 3,000 g for 5 minutes at room temperature and washed twice with 3 mL of induction media (IM; 10 mM MES [2-(N-morpholino) ethanesulfonic acid] buffer pH 5.6, 0.5% glucose, 2 mM NaH2PO4, 20 mM NH4Cl, 1 mM MgSO4, 2 mM KCl, 0.1 mM CaCl2), 0.01 mM FeSO4, and 0.2 mM acetosyringone). After washing, bacteria cultures were incubated in IM for 2 to 3 hours at room temperature in the dark, pelleted at 3000 g for 5 minutes, and resuspended into 3 mL of 10 mM MES buffer pH 5.6 with 0.2 mM acetosyringone. OD600nm was adjusted to a final density of 0.25 units for pAGM4673::TyrA (FIG. 3F) and pICH47822::DHS (FIG. 5A) infiltration, or 0.5 units for pAGM4673::TyrA-DHS co-expression constructs (FIG. 5B) using 10 mM MES buffer pH 5.6 with 0.2 mM acetosyringone. For infiltration of pICH47822::DHS constructs, the Agrobacterium suspensions were adjusted to OD600nm=0.5 and mixed with an equal volume of a suspension of an Agrobacterium clone transformed with pICH4780::p19 under control of the Arabidopsis ubiquitin ligase promoter adjusted to OD600nm=0.5, resulting in a final mixture of 0.25 OD600nm units for each construct. […] Nicotiana benthamiana plants of around 4-weeks-old were infiltrated close to the end of the light period into four different spots per plant, distributed into two leaves at two infiltrations per leaf, with each individual spot corresponding with a different construct/treatment. […]
The infiltrated leaf areas, excluding the midrib and major veins, were harvested at 72 hours after infiltration and frozen immediately in liquid nitrogen. […] A tyrosine peak was detected at the retention time of ˜3.5 minutes using fluorescence detection mode (excitation wavelength 274 nm, emission wavelength 303 nm) and quantified with an authentic tyrosine standard (Alfa Acsar, catalog number AAA1114118). […]

Molecule | type of inhibition by tyrosine with respect to arogenate [1] | tyrosine levels relative to the tdTom+YPet control ([2]; RuBisCO small subunit promoters (FIG. 5B)) | decrease of phenylalanine levels compared to YPet with tdTom control ([2]; expressed with tdTom control (FIG. 5B)) | tyrosine content compared to the GUS control [3]
B1 | competitive | ~100 times | 4 times | 8 times
B2 | – | – | – | 14 times
B3 | – | – | – | did not significantly increase tyrosine levels
